The values below come from patent publication US20240294645A1 (HANGZHOU SUMGEN BIOTECH, published 2024).

The target in assay [1] is T1, VEGF 121 Protein, Human, Recombinant (Sino Biological) (human, UniProt P15692-9 27-147).
T1 sequence (looked up): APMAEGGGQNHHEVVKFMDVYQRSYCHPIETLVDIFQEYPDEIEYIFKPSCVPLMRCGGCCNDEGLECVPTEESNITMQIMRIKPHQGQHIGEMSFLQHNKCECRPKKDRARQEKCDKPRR
The assay can be described thus: competition ELISA, VEGF121 coated, competitor biotin-labeled VEGFR2.

The target of assay [2] is VEGF165 Protein, Human, Cynomolgus, Recombinant, HPLC-verified (Sino Biological) (Human, Cynomolgus, UniProt P15692-4 27-191). Put plainly: competition ELISA, VEGF165 coated, competitor biotin-labeled VEGFR2. The method, then: (§1) 100 μL of 2N H₂SO4 stop solution was added to each well to terminate the substrate reaction.
Assay [3] addresses T2, Biotinylated Human VEGF165 Protein, His, Avitag (Acro Biosystems) (human, UniProt P15692-4 27-191, biotin-labeled (site not stated; Avitag)).
T2 construct: also called biotin-labeled VEGF165; not shown: His tag and Avitag
Put plainly: competition ELISA, VEGFR1 coated (competitor), biotin-labeled VEGF165 detected. How it is done: as §1

Assay [4] concerns the target T2, Biotinylated Human VEGF165 Protein, …. Put plainly: bridging ELISA: PD-L1 coated, sample, then biotin-labeled VEGF165.

B1: bispecific fusion protein 12VF2 (bispecific antibody, human IgG1, kappa)
light: EIVLTQSPGTLSLSPGERATLSCRASQRVSSSYLAWYQQKPGQAPRLLIYDASSRATGIPDRFSGSGSGTDFTLTISRLEPEDFAVYYCQQYGSLPWTFGQGTKVEIKRTVAAPSVFIFPPSDEQLKSGTASVVCLLNNFYPREAKVQWKVDNALQSGNSQESVTEQDSKDSTYSLSSTLTLSKADYEKHKVYACEVTHQGLSSPVTKSFNRGEC
heavy: EVQLVESGGGLVQPGGSLRLSCAASGFTFSRYWMSWVRQAPGKGLEWVANIKQDGSEKYYVDSVKGRFTISRDNAKNSLYLQMNSLRAEDTAVYYCAREGGWFGELAFDYWGQGTLVTVSSASTKGPSVFPLAPSSKSTSGGTAALGCLVKDYFPEPVTVSWNSGALTSGVHTFPAVLQSSGLYSLSSVVTVPSSSLGTQTYICNVNHKPSNTKVDKRVEPKSCDKTHTCPPCPAPEFEGGPSVFLFPPKPKDTLMISRTPEVTCVVVDVSHEDPEVKFNWYVDGVEVHNAKTKPREEQYNSTYRVVSVLTVLHQDWLNGKEYKCKVSNKALPASIEKTISKAKGQPREPQVYTLPPSREEMTKNQVSLTCLVKGFYPSDIAVEWESNGQPENNYKTTPPVLDSDGSFFLYSKLTVDKSRWQQGNVFSCSVMHEALHNHYTQKSLSLSPGKGGGGSGGGGSSDTGRPFVEMYSEIPEIIHMTEGRELVIPCRVTSPNITVTLKKFPLDTLIPDGKRIIWDSRKGFIISNATYKEIGLLTCEATVNGHLYKTNYLTHRQTNTIIDVVLSPSHGIELSVGEKLVLNCTARTELNVGIDFNWEYPSSKHQHKKLVNRDLKTQSGSEMKKFLSTLTIDGVTRSDQGLYTCAASSGLMTKKNSTFVRVHE
As to B1, the IC50 came to 3.29 nM in assay [1], 3.5 nM in assay [2] and 5.05 nM in assay [3].

B2: SG1202 (printed 'a PD-L2 antibody 1'; used as PD-L1 antibody, apparently PD-L1 antibody 2) (antibody, V domains shown)
VH: EVQLVESGGGLVQPGGSLRLSCAASGFTFSRYWMSWVRQAPGKGLEWVANIKQDGSEKYYVDSVKGRFTISRDNAKNSLYLQMNSLRAEDTAVYYCAREGGWFGELAFDYWGQGTLVTVSS
VL: EIVLTQSPGTLSLSPGERATLSCRASQRVSSSYLAWYQQKPGQAPRLLIYDASSRATGIPDRFSGSGSGTDFTLTISRLEPEDFAVYYCQQYGSLPWTFGQGTKVEIK
notes: Only variable regions are tied to SG1202; also called PD-L1 antibody SG1202; antibody SG1202
For B2, the binding result in assay [4] is “no binding”.
